Measured values published in patent US20230090014A1 (NANJING SANHOME PHARMACEUTICAL, published 2023).
Where two headings read alike, the source gives them in different places.

Legend:
[1] = target: T1, CD47 on the surface of CHO-K1-E5 cells (human, UniProt Q08722 19-323); experiment: FACS on CHO-K1-hCD47 cells, PE anti-human IgG
T1 construct: Full length CD47 expressed from pTargeT-CD47 in CHO-K1 cells; also called CD47 on cell surface; CHO-K1-hCD47

Human CD47-His protein [2] = target: T2, Human CD47-His protein (human, UniProt Q08722 19-136); experiment: ELISA on coated human CD47-His, anti-human IgG HRP, OD450
Human CD47-His protein [3] = target: T2, Human CD47-His protein; experiment: ELISA on coated human CD47-His, HRP anti-human IgG, OD450
Cynomolgus CD47-His = target: T3, Cynomolgus CD47-His (cynomolgus, UniProt A0A2K5X523 19-139); experiment: ELISA on coated cynomolgus CD47-His, anti-human IgG HRP, OD450
T3 construct: Bought protein; also called monkey CD47

[4] = target: T1, CD47 on the surface of CHO-K1-E5 cells; experiment: cell based ELISA on fixed CHO-K1-E5 cells, anti-human IgG HRP, OD450
CD47(19-136)-hFc = target: T4, CD47(19-136)-hFc (human, biotin-labelled in the Octet assay of Example 8 (sites not given)); experiment: BLI (Fortebio Octet RED96), biotinylated CD47-hFc on SA sensor, antibody in solution
T4 construct: tied by name; also called CD47-hFc; CD47-hFc-Biotin

[5] = target: T1, CD47 on the surface of CHO-K1-E5 cells; experiment: FACS blocking assay on CHO-K1-hCD47 cells; blocked ligand SIRPα-biotin, PE-SA
[6] = target: T5, hCD47 on the surface of Raji-hPD-L1 cells (human, UniProt Q08722 19-323); experiment: FACS on Raji-hPD-L1 cells (carry both hPD-L1 and hCD47), PE anti-human IgG Fc
T5 construct: whole, on cells

[7] = target: T5, hCD47 on the surface of Raji-hPD-L1 …; experiment: as above; remark: listed apart in the source
[8] = target: T1, CD47 on the surface of CHO-K1-E5 cells; experiment: FACS blocking assay on CHO-K1-E5 cells; blocked ligand SIRPα-Biotin, PE streptavidin
Human CD47-His protein [9] = target: T2, Human CD47-His protein; experiment: competition ELISA on coated CD47-His; blocked ligand SIRPα-biotin (2 µg/mL), SA-HRP, OD450

T4 sequence (chain, as listed by the source limits assumed): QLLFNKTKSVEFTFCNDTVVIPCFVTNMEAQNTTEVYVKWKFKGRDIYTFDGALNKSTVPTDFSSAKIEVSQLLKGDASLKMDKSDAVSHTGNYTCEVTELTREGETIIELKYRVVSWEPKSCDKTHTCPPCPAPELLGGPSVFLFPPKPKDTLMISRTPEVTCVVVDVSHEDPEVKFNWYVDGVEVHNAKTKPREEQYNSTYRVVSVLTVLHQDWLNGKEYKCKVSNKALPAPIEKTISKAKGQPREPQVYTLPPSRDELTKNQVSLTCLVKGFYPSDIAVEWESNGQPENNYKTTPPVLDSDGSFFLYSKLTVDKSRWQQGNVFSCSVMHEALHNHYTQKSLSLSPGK

B1: Hu34-39-PE (antibody, IgG4, V domains shown)
VH: QVQLQESGPGLVKPSQTLSLTCKASGYTFTNYWITWVKQRPGQGLEWIGDITPGRGETNYNQKFKGRVTLTVDISASTAYMELSSLRSEDTAVYYCSRWGLRRGDYWGQGTSVTVSS
VL: EIVLTQSPGTLSLSPGERATLSCRASSSVSSSYLNWYQQKSGASPKLWIYSTSNLASGVPGRFSGSGSGTSYSLTISSVEAEDAATYYCQQYSGYPLTFGAGTKLEVK
notes: also called humanized anti-CD47 antibody Hu34-39-PE
EC50 (read off the curve) [1]: ~1 nM
EC50 (read off the curve) (Human CD47-His protein [2]): ~0.08 nM
EC50 (read off the curve) (Human CD47-His protein [3]): ~60 nM
EC50 (read off the curve) (Cynomolgus CD47-His): ~0.1 nM
EC50 (read off the curve) [4]: ~0.1 nM
Kd (CD47(19-136)-hFc): 0.113 nM
koff (CD47(19-136)-hFc): 0.000758 s⁻¹
kon (CD47(19-136)-hFc): 6.69e+06 M⁻¹ s⁻¹
IC50 (read off the curve) [5]: ~2 nM
EC50 (read off the curve) [6]: ~0.2 nM
EC50 (read off the curve) [7]: ~0.1 nM
IC50 (read off the curve) [8]: ~1 nM
IC50 (read off the curve) (Human CD47-His protein [9]): ~100 nM
